Laboratory results published in patent US20260078416A1, “ORTHOGONAL METABOLIC FRAMEWORK FOR ONE-CARBON UTILIZATION” (Mojia Biotech Pte. Ltd., priority 2021, published 2026).

Key:
[1] = In vitro condensation of methyl ketones with formyl-CoA using purified enzymes; format: biochemical; details: 100 mM methyl ketone, 20 mM formate, 30° C., 24 hours, GC-MS
Method: The formyl-CoA generation catalyzed by CoA transferase CaAbfT and condensation catalyzed by HACS JGI15 is identical to the examples described above (FIG. 38A).
The enzymes CoA transferase CaAbfT and HACS JG115 were overexpressed and purified as described above. In vitro purified enzyme reactions for condensation of methyl ketone and formyl-CoA were comprised of 100 mM KPi pH 6.9, 10 mM MgCl2, 0.15 mM TPP, 2 mM acetyl-CoA, 1 μM JGI15, 2 μM CaAbfT, 20 mM formate and 100 mM tested methyl ketones. Reactions were incubated at 30° C. for 24 hours unless otherwise specified.
For this analysis, samples containing acyl-CoAs were first treated with 1/20 of the reaction volume of 10 M NaOH solution was added to terminate the reactions. After 30 min hydrolysis, 1/20 of the reaction volume of 10 N H2SO4 was added to improve the efficiency of acid extraction. The resulting sample was extracted into 4 mL ethyl acetate by vigorous vortexing for 90 seconds. The organic phase was separated and evaporated to dryness under a stream of nitrogen. […] Samples were analyzed by GC (1 μL injection with a 20:1 split ratio) using helium as the carrier gas at a flowrate of 1.5 mL/min and the following temperature profile: initial 90° C. for 3 min; ramp at 15° C./min to 170° C.; ramp at 20° C./min to 300° C. and hold for 8 min. […]

[2] = In vitro kinetic assay of purified HACS variants; substrate acetone; format: biochemical
Method: The kinetic assay was performed with a coupled reaction providing formyl-CoA from formate catalyzed by CoA transferase CaAbfT using acetyl-CoA as a CoA donor.
In vitro kinetic assay was comprised of 100 mM KPi pH 6.9, 10 mM MgCl2, 0.15 mM TPP, 2 mM acetyl-CoA, 1 μM CaAbfT, 0.25 μM HACS variants, and 20 mM sodium formate. Reactions were incubated at room temperature for 3 min to convert formate to formyl-CoA, and then specific concentration of aldehyde (specifically acetaldehyde or propionaldehyde here) was added to the reaction. After incubating another 3 min, 1/20 of the reaction volume of 10 M NaOH solution was added to terminate the reactions. After 30 min hydrolysis, 1/20 of the reaction volume of 10 N H2SO4 was added to neutralize the pH. Samples were centrifuged at 20817×g for 15 minutes and the supernatant analyzed by GC-MS as described below.
For this analysis, 0.15 of the reaction volume of internal standard methyl succinate was added to the samples. The resulting sample was extracted into 4 mL ethyl acetate by vigorous vortexing for 20 min. […] Samples were analyzed by GC (1 μL injection with a 20:1 split ratio) using helium as the carrier gas at a flowrate of 1.5 mL/min and the following temperature profile: initial 90° C. for 3 min; ramp at 15° C./min to 170° C.; ramp at 20° C./min to 300° C. and hold for 8 min. […]

[3] = system: tartronate production from glyoxylate and formate; assay: HACS screening with glyoxylate and formate (tartronate productivity); format: cell-based, E. coli; details: 5 mM glyoxylate and 20 mM formate, first round
Excerpt: We used 2-hydroxyacid productivity per cell density (μM/OD600) as indicator of HACS activity. 2-Hydroxyacids can be produced co-feeding various aldehydes and formic acid (formate) as carbon source in the presence of active HACS variant and acyl-CoA transferase from Clostridium aminobutyricum (CaAbfT). CaAbfT is shown to be capable of catalyzing reaction from formate to formyl-CoA (Nattermann, M., et al. ACS Catal 11 (9): 5396-5404 (2021)). HACS condenses aldehyde and formyl-CoA to form 2-hydroxyacyl-CoA, which can then be hydrolyzed to 2-hydroxyacid via native thioesterase activities (FIG. 31A).
For the in vivo prototyping, we engineered vectors to independently control expression of HACS variants and CaAbfT, with HACS under control of the IPTG-inducible T7 promoter in pCDFDuet-1 and CaAbfT under control of a cumate-inducible T5 promoter in pETDuet-1 (FIG. 31B) and transformed them into the engineered strain of E. coli described in EXAMPLE 3.
The HACS variants were screened for 2-hydroxyacid production using the high throughput screening platform as described in EXAMPLE 3 by co-feeding 5 mM aldehyde and 20 mM formate. The cells were harvested after 1 hour by centrifugation and the supernatant analyzed by HPLC (as described in EXAMPLE 2) or SoGO method.
We used tartronic acid (tartronate) productivity per cell density (uM tartronate/OD600) as indicator of HACS activity. […]

Row | Molecule | condensation of methyl ketones with formyl-CoA [1] | Kcat, app [2] [s⁻¹] | better tartronate productivity compared to other HACS variants [3] [%]
1 | JGI15: HACS variant; GenBank HAK63664.1 (protein) MAKSEGKVNGATLMARALQQQGVQYMFGIVGFPVIPIAIAAQREGITYIGMRNEQSASYAAQAASYLTGRPQACLVVSGPGVVHALAGLANAQVNCWPMLLIGGASAIEQNGMGAFQEERQVLLASPLCKYAHQVERPERIPYYVEQAVRSALFGRPGAAYLDMPDDVILGEVEEAAVRPAATVGEPPRSLAPQENIEAALDALQSAKRPLVIVGKGMAWSRAENEVRQFIERTRLPFLATPMGKGVMPDDHPLSVGGARSHALQEADLVFLLGARFNWILHFGLPPRYSKDVRVIQLDLSAEEIGNNRQAEVALVGDGKAIVGQLNQALSSRQWFYPAETPWREAIAAKIAGNQAAVAPMIADNTSPMNYYRVYRDIAARLPRNAIIVGEGANTMDIGRTQMPNFEPRSRLDAGSYGTMGIGLGFAVAAAAVHPGRPVIAVQGDSAFGFSGMEFETAARYGMPIKVIILNNGGIGMGSPAPRDGQPGMPHALSHDARYERIAEAFGGAGFYVTDSAELGPALDAAMAFKGPAIVNIKIAATADRKPQQFNWHG | could catalyze the condensation of tested ketones | 6.8 | –
2 | JGI20: HACS variant; GenBank PWB41796.1 (protein) MGQITGAQIVARALKQQGVEYMFGIVGIPVIPIAMFAQREGIKFYGFRNEQSASYAAAAVGYLTGRPGVCLGVSGPGMIHGVAGMANAWSNCWPMILIGGANDSYQNGQGAFQEAPQIEAARPFAKYCARPDSLARLPFYVEQAVRTSIYGRPGAVYLDLPGDIITGAMEEEDVHFPPRCPDAPRMMAPQESIDAAMAALKSAERPLVIVGKGAAYSRAENEVREFLETTQLPYLASPMGKGVMPDDHPLSIAPARSAALLGADVILLMGARLNWMMHFGHPPRFDPKVRVIQMDISAEEIGTNVPTEVALVGDAKAITTQLNASLKQQPWQYPSETTWWTGLRKKIDENGATVAEMMADESVPMSYYRVYREIRDLIPNDAIIQNEGASTMDIGRTLMPNFLPRHRLDAGSFGTMGVGLGQAIAAAAVHPDKHVFCIEGDSAFGFSGMEVETAARYGMKNITFIIINNNGIGGGPDTLDPTRVPPSAYTPNAHYEKMAEIYGGKGYFVTEPSQLRPALEEAIKADKPAIVNIMISATSQRKPQQFAWLTR | – | – | 30
